Assay results: US20260193669A1 (NYKODE THERAPEUTICS ASA, published 2026)

B1: Single chain PreF protein and ferritin (further polypeptide of DNA plasmids IV082 and IV084; also encoded alone by IV080) (other)
chain: QNITEEFYQSTCSAVSKGYLSALRTGWYTSVITIELSNIKENKCNGTDAKVKLIKQELDKYKNAVTELQLLMGSGNVGLGGAIASGVAVCKVLHLEGEVNKIKSALLSTNKAVVSLSNGVSVLTFKVLDLKNYIDKQLLPILNKQSCSISNIETVIEFQQKNNRLLEITREFSVNAGVTTPVSTYMLTNSELLSLINDMPITNDQKKLMSNNVQIVRQQSYSIMCIIKEEVLAYVVQLPLYGVIDTPCWKLHTSPLCTTNTKEGSNICLTRTDRGWYCDNAGSVSFFPQAETCKVQSNRVFCDTMNSRTLPSEVNLCNVDIFNPKYDCKIMTSKTDVSSSVITSLGAIVSCYGKTKCTASNKNRGIIKTFSNGCDYVSNKGVDTVSVGNTLYYVNKQEGKSLYVKGEPIINFYDPLVFPSDEFDASISQVNEKINQSLAFIRKSDELLSGGSSGSSGGSDIIKLLNEQVNKEMQSSNLYMSMSSWCYTHSLDGAGLFLFDHAAEEYEHAKKLIIFLNENNVPVQLTSISAPEHKFEGLTQIFQKAYEHEQHISESINNIVDHAIKCKDHATFNFLQWYVAEQHEEEVLFKDILDKIELIGNENHGLYLADQYVKGIAKSRKSGS
notes: Secreted into supernatant of Expi293F cells; 24-mer by native PAGE; also called further polypeptide (PreF protein)-ferritin nanoparticles, IV082 and IV084
B2: PreF protein and ferritin (further polypeptide of DNA plasmids IV083 and IV085; also encoded alone by IV081) (other)
chain: QNITEEFYQSTCSAVSKGYLSALRTGWYTSVITIELSNIKENKCNGTDAKVKLIKQELDKYKNAVTELQLLMGSGNVGLGGAIASGVAVSKVLHLEGEVNKIKSALLSTNKAVVSLSNGVSVLTFKVLDLKNYIDKQLLPILNKQSCSISNPETVIEFQQKNNRLLEITREFSVNAGVTTPVSTYMLTNSELLSLINDMPITNDQKKLMSNNVQIVRQQSYSIMSIIKEEVLAYVVQLPLYGVIDTPCWKLHTSPLCTTNTKNGSNICLTRTDRGWYCDNAGNVSFFPQAETCKVQSNRVFCDTMNSRTLPSEVNLCNVDIFNPKYDCKIMTSKTDVSSSVITSLGAIVSCYGKTKCTASNKNRGIIKTFSNGCDYVSNKGVDTVSVGNTLYYVNKQEGKSLYVKGEPIINFYDPLVFPSDEFDASISQVNEKINQSLAFINKSDELLSGSGSESQVRQQFSKDIEKLLNEQVNKEMQSSNLYMSMSSWSYTHSLDGAGLFLFDHAAEEYEHAKKLIIFLNENNVPVQLTSISAPEHCFEGLTQIFQKAYEHEQHISESINNIVDHAIKSKDHATFNFLQWYVAEQHEEEVLFKDILDKIELIGNENHGLYLADQYVKGIAKSRKS
notes: Secreted into supernatant of Expi293F cells; 24-mer by native PAGE; also called further polypeptide (PreF protein)-ferritin nanoparticles, IV083 and IV085

Molecular target: the molecule itself
Experiment: blue native PAGE and Western blot of supernatant, Motavizumab detection; self-assembly

Protein | binding result
B1 | binds
B2 | binds
